System: Escherichia coli TOP10
Experiment: shrunken log2 fold change of peptide-encoding DNA abundance (4.5 h post-induction vs induction); higher = less antimicrobial activity (less host growth inhibition)
Conditions: time post-induction: 4.5 h; library: site-saturation at positions 5, 18, 19, 20
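Further: peptides expressed intracellularly from a pBAD plasmid library in pooled LB shake-flask culture, induced with 0.3% L-arabinose, DNA abundance read by NGS, three biological replicates, DESeq2 with apeglm shrinkage.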

| Sequence | shrunken log2 fold change |
| --- | --- |
| RRIRMRPPRLPRPRPRPHSAPRP | 0.283 |
| RRIRERPPRLPRPRPRPTVIPRP | -0.0209 |
| RRIRMRPPRLPRPRPRPFFEPRP | 0.597 |
| RRIRVRPPRLPRPRPRPAMDPRP | 0.21 |
| RRIRTRPPRLPRPRPRPVIQPRP | -0.202 |
| RRIRQRPPRLPRPRPRPSYHPRP | -0.178 |
| RRIRIRPPRLPRPRPRPFLAPRP | -0.493 |
| RRIRRRPPRLPRPRPRPCITPRP | -0.846 |
| RRIRWRPPRLPRPRPRPSDTPRP | 0.0558 |
| RRIRKRPPRLPRPRPRPFMSPRP | 0.0192 |
| RRIRIRPPRLPRPRPRPCPIPRP | 0.128 |
| RRIRARPPRLPRPRPRPCWLPRP | 0.294 |
| RRIRDRPPRLPRPRPRPSTVPRP | 0.154 |
| RRIRTRPPRLPRPRPRPGTHPRP | -0.0792 |
| RRIRVRPPRLPRPRPRPPHIPRP | 0.0567 |
| RRIRGRPPRLPRPRPRPVMAPRP | 0.745 |
| RRIRYRPPRLPRPRPRPQTPPRP | -0.203 |
| RRIRRRPPRLPRPRPRPDLWPRP | 0.676 |
| RRIRARPPRLPRPRPRPTHMPRP | 0.156 |
| RRIRKRPPRLPRPRPRPFYKPRP | -0.456 |
| RRIRLRPPRLPRPRPRPYPKPRP | -0.0574 |
| RRIRHRPPRLPRPRPRPMHWPRP | -0.134 |
| RRIRDRPPRLPRPRPRPLNRPRP | -0.0679 |
| RRIRCRPPRLPRPRPRPRFIPRP | -0.171 |
| RRIRYRPPRLPRPRPRPTHQPRP | -0.161 |

| Sequence | shrunken log2 fold change |
| --- | --- |
| RRIRTRPPRLPRPRPRPFIWPRP | -0.485 |
| RRIRTRPPRLPRPRPRPPECPRP | 0.0838 |
| RRIRVRPPRLPRPRPRPHYSPRP | -0.424 |
| RRIRIRPPRLPRPRPRPYWAPRP | -1.07 |
| RRIRLRPPRLPRPRPRPPGNPRP | 0.303 |
| RRIRVRPPRLPRPRPRPRYSPRP | -0.911 |
| RRIRMRPPRLPRPRPRPCSNPRP | 0.0191 |
| RRIRSRPPRLPRPRPRPQVMPRP | -0.193 |
| RRIRWRPPRLPRPRPRPEQEPRP | 0.0529 |
| RRIRFRPPRLPRPRPRPSKNPRP | -0.519 |
| RRIRLRPPRLPRPRPRPHRQPRP | 0.115 |
| RRIRLRPPRLPRPRPRPHYIPRP | -0.615 |
| RRIRWRPPRLPRPRPRPMCEPRP | -0.0562 |
| RRIRTRPPRLPRPRPRPWSPPRP | -0.37 |
| RRIRLRPPRLPRPRPRPTFWPRP | 0.303 |
| RRIRLRPPRLPRPRPRPAKFPRP | 0.0249 |
| RRIRSRPPRLPRPRPRPDQRPRP | 0.0901 |
| RRIRRRPPRLPRPRPRPRKHPRP | 0.535 |
| RRIRDRPPRLPRPRPRPRVAPRP | 0.729 |
| RRIRQRPPRLPRPRPRPLQTPRP | -0.339 |
| RRIRNRPPRLPRPRPRPKNPPRP | 0.0494 |
| RRIRARPPRLPRPRPRPEVIPRP | 0.349 |
| RRIRRRPPRLPRPRPRPFLTPRP | 0.228 |
| RRIRYRPPRLPRPRPRPDFVPRP | -0.205 |
| RRIRRRPPRLPRPRPRPVSEPRP | 0.34 |

| Sequence | shrunken log2 fold change |
| --- | --- |
| RRIRDRPPRLPRPRPRPGHMPRP | -0.0968 |
| RRIRVRPPRLPRPRPRPGVDPRP | 0.0334 |
| RRIRQRPPRLPRPRPRPKTFPRP | -0.259 |
| RRIRARPPRLPRPRPRPSGFPRP | 0.0172 |
| RRIRRRPPRLPRPRPRPCEGPRP | -0.0173 |
| RRIRARPPRLPRPRPRPSMVPRP | -0.263 |
| RRIRLRPPRLPRPRPRPEMRPRP | 0.0659 |
| RRIRARPPRLPRPRPRPSPLPRP | 0.238 |
| RRIRRRPPRLPRPRPRPIWDPRP | 0.604 |
| RRIRCRPPRLPRPRPRPEQEPRP | -0.0332 |
| RRIRRRPPRLPRPRPRPVDMPRP | 0.0522 |
| RRIRDRPPRLPRPRPRPHCSPRP | 0.0218 |
| RRIRERPPRLPRPRPRPTHMPRP | -0.182 |
| RRIRQRPPRLPRPRPRPKYHPRP | -0.171 |
| RRIRGRPPRLPRPRPRPRQVPRP | 0.585 |
| RRIRKRPPRLPRPRPRPPNPPRP | 0.657 |
| RRIRSRPPRLPRPRPRPVQKPRP | 0.178 |
| RRIRKRPPRLPRPRPRPFQWPRP | 0.0233 |
| RRIRYRPPRLPRPRPRPRHYPRP | -0.974 |
| RRIRTRPPRLPRPRPRPCWGPRP | -0.234 |
| RRIRFRPPRLPRPRPRPFVGPRP | -0.0219 |
| RRIRGRPPRLPRPRPRPKGQPRP | 0.184 |
| RRIRWRPPRLPRPRPRPLWDPRP | 0.235 |
| RRIRKRPPRLPRPRPRPLCLPRP | -0.126 |
| RRIRVRPPRLPRPRPRPQSYPRP | -0.461 |

| Sequence | shrunken log2 fold change |
| --- | --- |
| RRIRPRPPRLPRPRPRPKYAPRP | -0.102 |
| RRIRYRPPRLPRPRPRPDIPPRP | -0.119 |
| RRIRFRPPRLPRPRPRPAQMPRP | 0.121 |
| RRIRDRPPRLPRPRPRPVETPRP | 0.222 |
| RRIRDRPPRLPRPRPRPITVPRP | -0.0979 |
| RRIRDRPPRLPRPRPRPIWIPRP | 0.0877 |
| RRIRKRPPRLPRPRPRPAMIPRP | 0.909 |
| RRIRERPPRLPRPRPRPERKPRP | 0.0538 |
| RRIRKRPPRLPRPRPRPKQCPRP | 0.0637 |
| RRIRIRPPRLPRPRPRPYCGPRP | -0.179 |
| RRIRHRPPRLPRPRPRPNFPPRP | -0.189 |
| RRIRLRPPRLPRPRPRPCLDPRP | -0.0475 |
| RRIRVRPPRLPRPRPRPFWQPRP | 0.181 |
| RRIRMRPPRLPRPRPRPHECPRP | 0.0178 |
| RRIRERPPRLPRPRPRPRQIPRP | 0.0409 |
| RRIRFRPPRLPRPRPRPAQQPRP | -0.0456 |
| RRIRFRPPRLPRPRPRPGCYPRP | -0.238 |
| RRIRFRPPRLPRPRPRPPVAPRP | 0.987 |
| RRIRPRPPRLPRPRPRPVAPPRP | 0.411 |
| RRIRSRPPRLPRPRPRPHVPPRP | -0.149 |
| RRIRERPPRLPRPRPRPFGCPRP | -0.0136 |
| RRIRLRPPRLPRPRPRPWRNPRP | 0.00408 |
| RRIRARPPRLPRPRPRPIFGPRP | 0.0662 |
| RRIRWRPPRLPRPRPRPTCWPRP | 0.183 |
| RRIRRRPPRLPRPRPRPHTPPRP | -0.039 |

| Sequence | shrunken log2 fold change |
| --- | --- |
| RRIRDRPPRLPRPRPRPINEPRP | -0.144 |
| RRIRSRPPRLPRPRPRPHHKPRP | -0.564 |
| RRIRLRPPRLPRPRPRPTDMPRP | -0.633 |
| RRIRNRPPRLPRPRPRPWLIPRP | -0.0217 |
| RRIRYRPPRLPRPRPRPSTYPRP | -0.332 |
| RRIRWRPPRLPRPRPRPWFWPRP | 0.123 |
| RRIRRRPPRLPRPRPRPQHYPRP | -0.128 |
| RRIRLRPPRLPRPRPRPREDPRP | 0.327 |
| RRIRCRPPRLPRPRPRPFKKPRP | -0.319 |
| RRIRVRPPRLPRPRPRPKAVPRP | 0.0112 |
| RRIRVRPPRLPRPRPRPAQSPRP | 0.107 |
| RRIRGRPPRLPRPRPRPAHPPRP | 0.754 |
| RRIRLRPPRLPRPRPRPRYDPRP | 0.0436 |
| RRIRARPPRLPRPRPRPMPKPRP | 0.411 |
| RRIRWRPPRLPRPRPRPRSDPRP | 0.618 |
| RRIRARPPRLPRPRPRPQPCPRP | 0.276 |
| RRIRHRPPRLPRPRPRPAVLPRP | 0.0684 |
| RRIRCRPPRLPRPRPRPFECPRP | -0.365 |
| RRIRHRPPRLPRPRPRPFTGPRP | -0.171 |
| RRIRQRPPRLPRPRPRPGTKPRP | 0.0136 |
| RRIRMRPPRLPRPRPRPKSHPRP | -0.0378 |
| RRIRCRPPRLPRPRPRPQDWPRP | -0.0628 |
| RRIRSRPPRLPRPRPRPHTQPRP | -0.433 |
| RRIRTRPPRLPRPRPRPSGTPRP | -0.0272 |
| RRIRHRPPRLPRPRPRPHFRPRP | 0.00253 |

| Sequence | shrunken log2 fold change |
| --- | --- |
| RRIRGRPPRLPRPRPRPEFSPRP | 1.15 |
| RRIRCRPPRLPRPRPRPWCTPRP | 0.023 |
| RRIRMRPPRLPRPRPRPADAPRP | 1.21 |
| RRIRDRPPRLPRPRPRPDREPRP | -0.0481 |
| RRIRSRPPRLPRPRPRPVRMPRP | 0.0776 |
| RRIRPRPPRLPRPRPRPGNGPRP | 0.349 |
| RRIRDRPPRLPRPRPRPHQIPRP | -0.248 |
| RRIRLRPPRLPRPRPRPRSNPRP | 1.62 |
| RRIRRRPPRLPRPRPRPPHDPRP | 1.49 |
| RRIRCRPPRLPRPRPRPHHVPRP | 0.0159 |
| RRIRGRPPRLPRPRPRPMAWPRP | 0.743 |
| RRIRHRPPRLPRPRPRPLFSPRP | -0.888 |
| RRIRARPPRLPRPRPRPRATPRP | 0.581 |
| RRIRCRPPRLPRPRPRPIAPPRP | 0.509 |
| RRIRFRPPRLPRPRPRPNDHPRP | -0.512 |
| RRIRRRPPRLPRPRPRPHWWPRP | 0.325 |
| RRIRFRPPRLPRPRPRPTQSPRP | 0.691 |
| RRIRVRPPRLPRPRPRPWVNPRP | 0.0119 |
| RRIRYRPPRLPRPRPRPNRQPRP | -0.053 |
| RRIRMRPPRLPRPRPRPPFNPRP | 0.175 |
| RRIRSRPPRLPRPRPRPIGRPRP | 0.104 |
| RRIRCRPPRLPRPRPRPHKNPRP | -0.418 |
| RRIRDRPPRLPRPRPRPCATPRP | 0.00509 |
| RRIRNRPPRLPRPRPRPECIPRP | 2.1 |
| RRIRHRPPRLPRPRPRPLAIPRP | -0.346 |

Reference: the supplement of paper PMC9112550, “Optimization of the antimicrobial peptide Bac7 by deep mutational scanning” (BMC Biology, 2022)
